# Ends that are not written are not given here. * marks the point of attachment. FITC = O=C1OC2(c3ccc(O)cc3Oc3cc(O)ccc32)c2ccc(NC(=S)*)cc21
# Legend:
# [1] = molecular target: T1, GST-p38α (human p38α with an N-terminal GST-tag, non-phosphorylated) (human, UniProt Q16539 1-360); experiment: fluorescence polarisation; direct binding: FITC-TAB1(386-414) 10 nM with non-phosphorylated GST-p38α 0.17–22 μM, 1 h at RT; 20 mM Tris pH 7.5, 100 mM NaCl, 1 mM DTT, 10 mM MgCl2; conditions: both partners purified
# T1 construct: p38α (MAPK14), human; non-phosphorylated; The results text says 'p38α'; the methods and the legend say GST-p38α; also called MAPK14; non-phosphorylated p38α; source: E. coli BL21 DE3 or BL21-DE3-pLysS, purified (Glutathione-Sepharose, dialysis); not shown: GST, N-terminal, kept
# T1 sequence (Q16539 whole entry): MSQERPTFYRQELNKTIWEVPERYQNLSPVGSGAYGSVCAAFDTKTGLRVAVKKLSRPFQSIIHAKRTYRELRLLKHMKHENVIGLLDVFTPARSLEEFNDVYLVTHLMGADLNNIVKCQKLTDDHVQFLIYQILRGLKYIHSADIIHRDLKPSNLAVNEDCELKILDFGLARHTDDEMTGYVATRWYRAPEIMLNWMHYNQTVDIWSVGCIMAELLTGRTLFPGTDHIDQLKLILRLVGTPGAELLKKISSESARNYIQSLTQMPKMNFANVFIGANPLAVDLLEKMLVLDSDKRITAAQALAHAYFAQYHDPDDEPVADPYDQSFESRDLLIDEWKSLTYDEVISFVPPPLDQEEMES
# [2] = molecular target: T1, GST-p38α (human p38α with an N-terminal …); experiment: thermal shift assay; GST-p38α 1.5 μM with TAB1(386-414) peptide 15 μM, alone or with NC-37 / NC-38; 20 mM TRIS pH 7.5, 100 mM NaCl, 2 mM MgCl2, 2 mM DTT; SYPRO Orange, 25 to 95 °C; conditions: both partners purified
Kd [1],binding result [2],Binder
989 ± 160 nM,–,"{FITC}-RVYPVSVPYSSAQSTSKTSVTLSLVMPSQ (source: synthetic peptide, bought: ChinaPeptides) [FITC-TAB1(386-414) peptide]"
–,binds,"RVYPVSVPYSSAQSTSKTSVTLSLVMPSQ (also called TAB1 peptide; source: synthetic peptide, bought: GenScript) [TAB1(386-414) peptide]"

# Source: publication PMC10261013, “Characterization of p38α autophosphorylation inhibitors that target the non-canonical activation pathway” (Nature Communications, 2023)
